The results in this text go back to patent US20250066499A1 (SUNSHINE GUOJIAN PHARMACEUTICAL SHANGHAI, published 2025).

For one assay, the target named is T1, human CD73-His protein (human, UniProt P21589 27-549).
T1 construct: Expressed in HEK-293F with a signal peptide that is not specified; In the ELISAs it was biotinylated with EZ-Link NHS-Biotin (CD73-biotin) and captured on streptavidin; in SPR and the enzyme assay it was used as CD73-His; also called CD73-his antigen; CD73-biotin
T1 sequence: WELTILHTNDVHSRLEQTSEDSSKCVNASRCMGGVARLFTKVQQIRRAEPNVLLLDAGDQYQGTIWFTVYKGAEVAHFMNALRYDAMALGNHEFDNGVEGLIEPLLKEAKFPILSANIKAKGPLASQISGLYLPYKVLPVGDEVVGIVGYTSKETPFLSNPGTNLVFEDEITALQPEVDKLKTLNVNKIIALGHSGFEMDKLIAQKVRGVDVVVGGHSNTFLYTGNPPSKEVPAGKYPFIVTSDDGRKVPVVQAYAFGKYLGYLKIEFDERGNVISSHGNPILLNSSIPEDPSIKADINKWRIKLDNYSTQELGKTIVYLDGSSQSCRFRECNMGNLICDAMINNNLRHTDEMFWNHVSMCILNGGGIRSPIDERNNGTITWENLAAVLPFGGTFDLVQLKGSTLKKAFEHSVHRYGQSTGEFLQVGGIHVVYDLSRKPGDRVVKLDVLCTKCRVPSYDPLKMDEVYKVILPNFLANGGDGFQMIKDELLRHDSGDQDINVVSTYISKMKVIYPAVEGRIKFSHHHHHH
Briefly: ELISA as in Example 3, antigen CD73-his, antibody titrated, absorbance 450 nm.

A further assay has as its target T2, CD73-ND-V140A (human, UniProt P21589 27-317).
T2 construct: Alanine mutant of CD73-ND
T2 sequence: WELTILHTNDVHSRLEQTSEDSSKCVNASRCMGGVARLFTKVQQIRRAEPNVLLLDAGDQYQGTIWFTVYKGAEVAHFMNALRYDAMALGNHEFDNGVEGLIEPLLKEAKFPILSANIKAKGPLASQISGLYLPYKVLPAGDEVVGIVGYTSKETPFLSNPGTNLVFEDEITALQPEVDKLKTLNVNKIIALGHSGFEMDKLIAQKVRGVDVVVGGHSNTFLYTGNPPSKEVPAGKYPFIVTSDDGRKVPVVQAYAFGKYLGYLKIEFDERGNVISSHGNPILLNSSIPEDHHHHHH
Briefly: ELISA, high plateau value (OD 450 nm). On the procedure:
(§1) The ELISA plates were coated with SA protein diluted to 1.5 μg/mL in coating buffer (50 mM carbonate coating buffer, pH 9.6) and incubated overnight at 4° C. The supernatant was discarded, and the plates were washed three times with PBST. Then, 5% skimmed milk powder prepared with PBS was added for blocking and the plates were incubated for 2 h at 37° C. After washing the plates once with PBST, CD73-biotin protein (prepared by biotinylating CD73-His protein according to the EZ-Link NHS-Biotin Reagent instructions) was diluted to 0.5 μg/mL and added at 100 μL/well for incubation at room temperature for 1 h. The plates were washed three times with PBST, and the prepared murine-derived monoclonal antibodies against human CD73 were serially diluted with 1% BSA buffer prepared with PBST and added to the ELISA plates at 100 μl/well. The plates were incubated at 37° C. for 1 h. After washing the plates three times with PBST, HRP-labeled goat anti-mouse IgG secondary antibody was added and the plates were incubated for 30 min at 37° C. After washing the plates three times with PBST, the residual droplets were patted dry on absorbent paper as much as possible. Then, 100 μl of TMB color developing solution was added to each well, and the plates were incubated in the dark at room temperature for 5 min for color development. Subsequently, 50 μl of 2M H₂SO₄ stop solution was added to each well to terminate the substrate reaction. The OD values were read at 450 nm using a multimode microplate reader to analyze the binding ability of the tested antibodies to the target antigen human CD73-His.
(§2) Referring to the experimental method in Example 3, the affinity of 48A11-HuV33 for various mutant proteins of CD73-ND was determined. The SA protein was diluted to 1 μg/mL for coating the ELISA plates, and the biotinylated CD73 protein (CD73-biotin) was used at a concentration of 0.1 μg/mL.

The target in a further assay is T3, CD73-ND-N185A (human, UniProt P21589 27-317).
T3 construct: Alanine mutant of CD73-ND
T3 sequence: T2 sequence with A140V, N185A
Briefly: ELISA; decline multiple of EC50 against CD73-ND. Here is the method:
as §1, §2

Another assay addresses T4, CD73-ND-T183A (human, UniProt P21589 27-317).
T4 construct: Alanine mutant of CD73-ND
T4 sequence: T2 sequence with A140V, T183A
Kind of assay: ELISA; decline multiple of EC50 against CD73-ND. On the procedure:
as §1, §2

The next assay has as its target T5, CD73-ND-L181A (human, UniProt P21589 27-317).
T5 construct: Alanine mutant of CD73-ND
T5 sequence: T2 sequence with A140V, L181A
Briefly: ELISA; decline multiple of EC50 against CD73-ND. Here is the method:
as §1, §2

Numbering of substitutions follows the chain as printed.

B1: 56B10-HuV31 (antibody, human IgG4, V domains shown)
VH: QVQLQQSGAEVKKPGASVKVSCKASGYTFTRYYIYWVRQRPGQGLEWIGWIYPGNFNTKYNEKFKGRATLTADTSASTAYMELSSLTSEDTAVYYCARDVYDYAGFAYWGQGTLVTVSS
VL: DIQLTQSPSFLSASVGDRVTITCKASQGVATAVAWYQQKPGQSPKLLIYWASTRHTGVPDRFSGSGSGTEFTLTISSLQPEDFATYYCQQYSSYPWTFGQGTKVEIK
notes: Humanized
For the molecule B1, the 50% effective concentration (EC50 (read off the curve)) in the assay with human CD73-His protein was approximately 0.07 nM.

B2: 48A11-HuV33 (antibody, human IgG4, V domains shown)
VH: QVQLVQSGAEVKKPGASVKVSCKASGYTFTSYWMHWVRQAPGQGLEWIGEINPSIGRTNYNEKFKSRVTLTRDTSTSTAYMELSSLRSEDTAVYYCARRVYGTMDYWGQGTLVTVSS
VL: DIQMTQSPSSLSASVGDRVTITCKASQDINSYLSWFQQKPGKSPKLLIYRANIWVDGVPSRFSGSGSGQDYTFTISSLQPEDIATYYCLQYDELYTFGQGTKVEIK
notes: Humanized
In the case of B2, in the assay with CD73-ND-V140A, the Top stood at 2.05. Besides, the figures for the “Ratio(EC50)” value in the assay with CD73-ND-N185A, with CD73-ND-T183A and with CD73-ND-L181A were 1.6 fold, 1.4 fold and 1.9 fold, respectively.
